Patent publication US20110189776, “PROKARYOTIC RNAi-LIKE SYSTEM AND METHODS OF USE” (University of Georgia Research Foundation, Inc., published 2011)

Target: native psiRNP containing Cmr1-1, Cmr1-2, Cmr2, Cmr3, Cmr4, Cmr5, Cmr6 (Pyrococcus furiosus, UniProt Q8U1S5;Q8U3V3;Q8U1S6;Q8U1S7;Q8U1S9;Q8U1T0;Q8U1T1 …)
Assay: EMSA; native gel Northern with psiRNA 7.01 probe; mobility shift lost on deproteinization
Conditions: tags: S-sepharose peak fraction, endogenous psiRNAs; other co-purifying proteins present

B1: psiRNA 7.01, 45 nt (ssRNA)
RNA: AUUGAAAGUUGUAGUAUGCGGUCCUUGCGGCUGAGAGCACUUCAG
binding result: binds
